One block for each binder: values may come before it. Starred links: 1 amine or outer side, 2 acyl side, 3 side chain; linkers in the order of their positions; H or OH if unused. Positions of bridges follow the written chain, without caps; N, C: chain ends. Non-standard residues stand in square brackets, D forms with d. Primed or numbered codes have the meaning given here. PyrS2″ = (S)-3-amino-1-((pent-4-en-1-yloxy)carbonyl)pyrrolidine-3-carboxylic acid (stapling residue), C=CCCCOC(=O)N1CC[C@@](N[*:1])(C(=O)[*:2])C1; B5(4) = 2,2-bis(4-pentenyl)glycine = 2-amino-2-(pent-4-en-1-yl)hept-6-enoic acid (stitching residue), C=CCCCC(CCCC=C)(N[*:1])C(=O)[*:2]; (4PyPip)GlnR = (S)-2-amino-5-oxo-5-(4-(pyridin-4-yl)piperazin-1-yl)pentanoic acid, O=C(CC[C@H](N[*:1])C(=O)[*:2])N1CCN(c2ccncc2)CC1; (EtSSpy)GluE = (S)-2-amino-5-oxo-5-(2-(pyridin-2-yldisulfaneyl)ethoxy)pentanoic acid, O=C(CC[C@H](N[*:1])C(=O)[*:2])OCCSSc1ccccn1; TfeGA = (S)-2-amino-3-((carboxymethyl)(2,2,2-trifluoroethyl)amino)propanoic acid, O=C([C@H](CN(CC(=O)[*:3])CC(F)(F)F)N[*:1])[*:2]; (4Pippip)GlnR″ = (S)-5-([1,4'-bipiperidin]-1'-yl)-2-amino-5-oxopentanoic acid, O=C(CC[C@H](N[*:1])C(=O)[*:2])N1CCC(N2CCCCC2)CC1; PyrS2 = (S)-3-amino-1-((pent-4-en-1-yloxy)carbonyl)pyrrolidine-3-carboxylic acid, C=CCCCOC(=O)N1CC[C@@](N[*:1])(C(=O)[*:2])C1; (EtSSPh)AspE = (S)-2-amino-4-oxo-4-(2-(phenyldisulfaneyl)ethoxy)butanoic acid, O=C(C[C@H](N[*:1])C(=O)[*:2])OCCSSc1ccccc1; (EtSSHex)AspE = (S)-2-amino-4-(2-(hexyldisulfaneyl)ethoxy)-4-oxobutanoic acid, CCCCCCSSCCOC(=O)C[C@H](N[*:1])C(=O)[*:2]; B5(27) = 2-amino-2-(pent-4-en-1-yl)hept-6-enoic acid (two alkene side-chain arms), C=CCCCC(CCCC=C)(N[*:1])C(=O)[*:2]; B5(19) = 2-amino-2-(pent-4-en-1-yl)hept-6-enoic acid (bis(4-pentenyl)glycine), C=CCCCC(CCCC=C)(N[*:1])C(=O)[*:2]; F2PipNva = (S)-2-amino-5-(4,4-difluoropiperidin-1-yl)pentanoic acid, O=C([C@H](CCCN1CCC(F)(F)CC1)N[*:1])[*:2]; GluSH = (S)-2-amino-5-mercapto-5-oxopentanoic acid, O=C(CC[C@H](N[*:1])C(=O)[*:2])S[*:3]; MorphAbu = (S)-2-amino-4-morpholinobutanoic acid, O=C([C@H](CCN1CCOCC1)N[*:1])[*:2]; Bta = N[C@@H](Cc1csc2ccccc12)C(=O)O; αAllylPro = C=CC[C@@]1(C(=O)O)CCCN1; tBuAla = CC(C)(C)C[C@H](N)C(=O)O; 3Thi = N[C@@H](Cc1ccsc1)C(=O)O; TfeGA″ = not defined here; hSer = N[C@@H](CCO)C(=O)O
How the values were obtained:
[1] = molecular target: T1, B-cat-Halo (beta-catenin HaloTag NanoBRET construct expressed in HEK293 cells) (UniProt P35222 1-781); assay: cell-based or functional assay
T1 sequence (looked up): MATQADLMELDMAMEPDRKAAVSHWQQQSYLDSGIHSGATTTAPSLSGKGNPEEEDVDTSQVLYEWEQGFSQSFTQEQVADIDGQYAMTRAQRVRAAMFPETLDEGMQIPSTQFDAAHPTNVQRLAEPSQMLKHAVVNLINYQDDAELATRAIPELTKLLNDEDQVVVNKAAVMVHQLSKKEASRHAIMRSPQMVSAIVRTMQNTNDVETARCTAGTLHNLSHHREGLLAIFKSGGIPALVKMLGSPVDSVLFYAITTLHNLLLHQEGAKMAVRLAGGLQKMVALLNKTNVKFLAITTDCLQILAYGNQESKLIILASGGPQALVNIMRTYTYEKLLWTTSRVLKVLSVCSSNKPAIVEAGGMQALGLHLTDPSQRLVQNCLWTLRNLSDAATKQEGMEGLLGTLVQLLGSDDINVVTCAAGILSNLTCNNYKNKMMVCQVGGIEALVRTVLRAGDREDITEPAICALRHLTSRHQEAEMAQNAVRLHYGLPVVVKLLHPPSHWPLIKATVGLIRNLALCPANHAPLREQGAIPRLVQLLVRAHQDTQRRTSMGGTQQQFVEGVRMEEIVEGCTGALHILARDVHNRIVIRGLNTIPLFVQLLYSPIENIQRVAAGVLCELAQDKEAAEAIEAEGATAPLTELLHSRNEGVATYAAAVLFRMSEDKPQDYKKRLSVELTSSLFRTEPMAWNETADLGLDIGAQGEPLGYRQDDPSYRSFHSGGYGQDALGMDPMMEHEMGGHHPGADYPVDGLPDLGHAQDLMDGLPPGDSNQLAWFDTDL

[2] = molecular target: T2, B-cat-Halo (beta-catenin HaloTag fusion expressed in HEK293 cells) (UniProt P35222 1-781, HaloTag labelled with HaloTag NanoBRET 618 Ligand); assay: cell-based or functional assay
T2 sequence (looked up): T1 sequence (looked up)

[3] = molecular target: T3, full-length beta-Catenin (Uniprot ID P35222) (Homo sapiens (Human), UniProt P35222 1-781); assay: AlphaScreen competition vs biotin-TCF4(10-53) on full-length beta-catenin
T3 construct: the AlphaScreen used a Histidine (Nickel Chelate) detection kit, so a His tag is likely but not described; also called B-Catenin; bCat
T3 sequence: T1 sequence (looked up)
In short: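 Titrated peptide was preincubated 15 minutes at 20° C, then donor and acceptor beads were added for 60 minutes at 20° C protected from light. Reads were done in duplicate, and data were fitted to a 1:1 binding model with Hill slope; concentrations are final.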

- NanoBRET Abs IC50 [1]: 20.4 µM
Binder: Ac-[αAllylPro][(EtSSHex)AspE][tBuAla][B5(4)]DDAAFL[PyrS2″][3Thi][Bta]Q-NH2 (staple 1-4, 4-11) [I-1960]

- NanoBRET Abs IC50 [1]: 15.4 µM
Binder: Ac-[αAllylPro]D[tBuAla][B5(19)]D[TfeGA]AAF[(4Pippip)GlnR″][PyrS2″][3Thi][Bta]Q-NH2 (staple 1-4, 4-11) [I-1940]

- NanoBRET Abs IC50 [2]: > 20 µM
Binder: Ac-[αAllylPro]D[tBuAla][B5(27)]DDA[F2PipNva]FL[PyrS2][3Thi][Bta]Q-NH2 (staple 1-4, 4-11) [I-1502]

- EC50 [3]: ≥ 10 µM
B1: I-312 (peptide)
peptide: XDAXDDAAFVXFWQ
modifications: not fully specified; N-terminal acetyl (Ac); C-terminal amide (NH2); PL3 at 1, B5 at 4, S8 at 11, 4ClF (printed 4C1F) at 12; stapled PL3-B5 and B5-S8
notes: Ac-PL3-Asp-Ala-B5-Asp-Asp-Ala-Ala-Phe-Val-S8-4C1F-Trp-Gln-NH2; stapled peptide composition

- NanoBRET Abs IC50 [2]: 9.4 µM
Binder: Ac-[αAllylPro]D[tBuAla][B5(27)]DDAAFL[PyrS2][3Thi][Bta]F-NH2 (staple 1-4, 4-11) [I-1496]

- NanoBRET Abs IC50 [1]: 7.9 µM
Binder: Ac-[αAllylPro]D[tBuAla][B5(4)]D[TfeGA″]AAF[(NHBn)GlnR][PyrS2″][3Thi][Bta]Q-NH2 (staple 1-4, 4-11; reading uncertain) [I-1942]

- NanoBRET Abs IC50 [1]: 30 µM
Binder: Ac-[αAllylPro]D[tBuAla][B5(19)]D[TfeGA]AAF[(4PyPip)GlnR][PyrS2″][3Thi][Bta]Q-NH2 (staple 1-4, 4-11) [I-1938]

- NanoBRET Abs IC50 [2]: 4.9 µM
Binder: Ac-[αAllylPro]D[tBuAla][B5(27)]DDAAFL[PyrS2][3Thi][Bta]S-NH2 (staple 1-4, 4-11) [I-1493]

- NanoBRET Abs IC50 [1]: > 20 µM
Binder: Ac-[αAllylPro]D[tBuAla][B5(4)][(EtSSHex)AspE]DAAFL[PyrS2″][3Thi][Bta]Q-NH2 (staple 1-4, 4-11) [I-1961]

- NanoBRET Abs IC50 [1]: > 20 µM
Binder: Ac-[αAllylPro]D[tBuAla][B5(4)]D[(EtSSpy)GluE]AAFL[PyrS2″][3Thi][Bta]Q-NH2 (staple 1-4, 4-11) [I-1951]

- EC50 [3]: 3.6 µM
B2: I-313 (peptide)
peptide: XDAXDDAAFVXFWQ
modifications: not fully specified; N-terminal acetyl (Ac); C-terminal amide (NH2); PL3 at 1, B5 at 4, S8 at 11, 4ClF (printed 4C1F) at 12; stapled PL3-B5 and B5-S8
notes: as for B1

- NanoBRET Abs IC50 [2]: 11.4 µM
Binder: Ac-[αAllylPro]D[tBuAla][B5(27)]DDAAFL[PyrS2][3Thi][Bta]W-NH2 (staple 1-4, 4-11) [I-1497]

- NanoBRET Abs IC50 [2]: > 20 µM
Binder: Ac-[αAllylPro]D[tBuAla][B5(27)]DDA[MorphAbu]FL[PyrS2][3Thi][Bta]Q-NH2 (staple 1-4, 4-11) [I-1504]

- NanoBRET Abs IC50 [2]: 6.4 µM
Binder: Ac-[αAllylPro]D[tBuAla][B5(27)]DDAAFL[PyrS2][3Thi][Bta][hSer]-NH2 (staple 1-4, 4-11) [I-1499]

- EC50 [3]: 0.121 µM
B3: I-318 (peptide)
peptide: XDAXDDAAFVXFWQ
modifications: not fully specified; N-terminal acetyl (Ac); C-terminal amide (NH2); PL3 at 1, B5 at 4, S8 at 11, 2FF at 12; stapled PL3-B5 and B5-S8
notes: Ac-PL3-Asp-Ala-B5-Asp-Asp-Ala-Ala-Phe-Val-S8-2FF-Trp-Gln-NH2; stapled peptide composition

- NanoBRET Abs IC50 [1]: > 20 µM
Binder: Ac-[αAllylPro][(EtSSPh)AspE][tBuAla][B5(4)]DDAAFL[PyrS2″][3Thi][Bta]Q-NH2 (staple 1-4, 4-11; also: isomer composition, later eluting HPLC peak) [I-1953]

- NanoBRET Abs IC50 [1]: 28.5 µM
Binder: Ac-[αAllylPro]D[tBuAla][B5(4)]D[GluSH]AAFL[PyrS2″][3Thi][Bta]Q-NH2 (staple 1-4, 4-11; also: isomer composition, later eluting HPLC peak) [I-1949]
